Among the data in patent US20220242939A1 (BIOARCTIC, published 2022) are binding result, EC50 and Kd values, retold here.

For experiment [1], the target named is T1, negative control peptide AATVGSLAGQPLQER-Acp-C (SEQ ID NO:53) conjugated to BSA (human, not fully specified (residue 17); printed as AATVGSLAGQPLQER-Acp-C; also: C-terminal Cys conjugated to BSA carrier).
T1 construct: BSA carrier; also called 192-206 BSA-conjugated peptide
T1 peptide: AATVGSLAGQPLQER[Ahx]C
In words: direct ELISA, target coated at 1 ug/ml, antibody in 3-fold dilutions from 500 ng/ml, OD 450 nm. The protocol: (§1) Selectivity evaluation of recombinant antibodies by direct ELISA: The direct ELISA described below was used to evaluate the binding selectivity of the recombinant antibodies produced in Example 11.
(§2) The screening was performed according to standard ELISA protocols. Briefly, 1 μg/ml solutions of BSA-conjugated neo-epitope peptides, recombinant C-terminal ApoE fragment, negative control peptide and full-length ApoE were prepared by dilution in PBS. 50 μl/well were added to an ELISA half-area 96 well microtiter plate, the plate was sealed with adhesive sealer and incubated over night at 4° C. After discarding the solution, the plates were blocked with 150 μl/well of protein-free blocking solution (Pierce) for 1 h at room temperature with shake (900 rpm). The plates were washed four times with washing buffer containing 0.28 mM NaH₂PO₄, 2.5 mM Na₂HPO₄, 150 mM NaCl, 0.1% TWEEN®-20 and 0.0075% Kathon CG. Generated recombinant antibodies of interest were serially diluted 3-fold with a starting dilution at 0.5 μg/ml (mixed 1:1 with dilution buffer: PBS with 0.1% BSA and 0.05% TWEEN®-20). An anti-ApoE C-terminal antibody was used as a reference antibody (ApoE E-8 mouse monoclonal, cat. no. sc-393302; Santa Cruz Biotechnology). 50 μl/well were added into the ELISA plates and incubated for 2 h at room temperature with shake (900 rpm). The plates were washed four times as described previously. […] After another wash (as described previously), 50 μl/well of K-Blue® aqueous substrate (Neogen) were added, and the reaction was stopped after 5-15 min with 50 μl/well of 0.5 M […]. The optical density at 450 nm was read using an ELISA reader (Tecan).
On the technique in general: In an ELISA, binding on a coated surface is turned into a signal by an enzyme label.

In experiment [2] the target is T2, L198 N-terminal neo-epitope peptide LAGQPL-Acp-C (SEQ ID NO:52) conjugated to BSA (human, not fully specified (residue 8); printed as LAGQPL-Acp-C; also: C-terminal Cys conjugated to BSA carrier).
T2 construct: BSA carrier; also called L198-BSA peptide
T2 peptide: LAGQPL[Ahx]C
Described as above. The protocol: as §1, §2

Experiment [3] concerns the target T3, recombinant C-terminal ApoE fragment G200-HIS (ApoE-G200-H299-10xHIS) (human, UniProt P02649 218-317).
T3 construct: also called G200-HIS fragment
The experiment is described as follows: second direct ELISA, G200-HIS coated at 0.1 µM. The protocol: as §2, with “(Tecan). The optical density was plotted against the antibody concentration to generate concentration-response curves (FIG. 16).” for “(Tecan).”
(§3) These were added in the same molarity (0.1 μM) to provide an equal number of molecules available for binding by the antibodies (BSA-coupled peptides were coated at 1 μg/ml as before).

For experiment [4], the target named is T4, recombinant full-length ApoE4 (aa 1-299; SEQ ID NO:45; Abcam cat. no. ab50243) (human, UniProt P02649 19-317).
T4 construct: Bought protein; also called recombinant ApoE4 full-length protein
T4 sequence (P02649 19-317 C130R limits assumed): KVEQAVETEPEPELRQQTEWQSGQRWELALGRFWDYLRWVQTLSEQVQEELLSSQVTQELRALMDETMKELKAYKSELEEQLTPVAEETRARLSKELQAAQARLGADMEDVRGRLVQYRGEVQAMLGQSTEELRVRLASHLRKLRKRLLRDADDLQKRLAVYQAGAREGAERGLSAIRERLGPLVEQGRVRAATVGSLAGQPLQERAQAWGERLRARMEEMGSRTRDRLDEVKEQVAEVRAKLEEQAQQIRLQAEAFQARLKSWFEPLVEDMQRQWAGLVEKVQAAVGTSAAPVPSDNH
In words: direct ELISA, second protocol; proteins coated at 0.1 uM, BSA peptides at 1 ug/ml; antibody in 3-fold dilutions from 3000 ng/ml; blank reduced OD 450 nm. How it is done: as §2, with “Generated recombinant antibodies of interest were serially diluted 3-fold with a starting dilution at 0.5 μg/ml (mixed 1:1 with dilution buffer: PBS with 0.1% BSA and 0.05% TWEEN®-20).” left out, “(Tecan). The optical density was plotted against the antibody concentration to generate concentration-response curves (FIG. 16).” for “(Tecan).”
as §3

The target in experiment [5] is T3, recombinant C-terminal ApoE fragment …. The experiment is described as follows: SPR (Biacore 8K), G200-HIS amine-coupled on CM5, antibody as analyte, bivalent analyte fit (KD1). (In general: SPR reads the build-up and loss of mass on a sensor chip optically.)

As a reminder, the EC50 is the midpoint of the concentration-response curve.

Non-standard residues stand in square brackets, D forms with d. No end group written: not given here. Ahx = NCCCCCC(=O)O

T3 sequence (P02649 other isoform, or with tags, fused parts or gaps limits assumed): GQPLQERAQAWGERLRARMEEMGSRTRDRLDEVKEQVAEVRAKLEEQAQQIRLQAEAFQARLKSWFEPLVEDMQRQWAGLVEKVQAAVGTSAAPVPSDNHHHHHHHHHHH

B1: 23D5, recombinant IgG2c antibody (antibody, V domains shown)
VH: EVQLVESGGGLVKPGGSLKLSCSASGFTFSRYAMSWVRQSPEKRLEWVAEINSGGSYSFYSDTVTGRFTISRDNAKNTLFLEMSSLRSEDTAIYYCARQLSGTDYYGTDYWGQGTSVTVSS
VL: DVLMTQTPLSLPVSHGDQASISCRSSQSLLYSNGNTYLEWYLQKPGQSPKLLIYKVSNRFSGVPDRFSGSGSGTDFTLKISRVEAEDLGVYYCFQGSHVPYTFGGGTKLEIK
For the molecule B1, the binding result in experiment [1] is on record as “no binding (tested: 500 ng/ml)”; in experiment [2] it was “no binding (tested: 500 ng/ml)”; in experiment [4] it was “no binding (tested: 3000 ng/ml)”. In addition, the EC50 in experiment [3] was 0.0101 µg/mL. In addition, in experiment [5], the Kd is 299 nM.

B2: 7C7, recombinant IgG2c antibody (antibody, V domains shown)
VH: EVQLVESGGGLVKPGGSLRLSCAASGFTFSSFAMSWVRQSPERRLEWVAEISRGGGYAFYSDTVTGRFTISRDNARNTLFLEMGSLRSEDTAMYYCSRQLTGTDYYAMDYWGQGTSVTVSS
VL: DVLLTQTPLSLFVSLGDQASISCRSSQSIVYTNGNTYLEWYLQKPGQSPKLLIYKVSNRFSGVPDRFSGSGSGTDFTLKISRVEAEDLGVYYCFQGSQVPYTFGGGTKLELK
B2: the values for the binding result in experiment [1], in experiment [2] and in experiment [4] were “no binding (tested: 500 ng/ml)”, “no binding (tested: 500 ng/ml)” and “no binding (tested: 3000 ng/ml)”, respectively. In addition, in experiment [3], the EC50 turned out to be 0.0181 µg/mL. The Kd in experiment [5] was 417 nM.

B3: 4E6, recombinant IgG2c antibody (antibody, V domains shown)
VH: EVQLVESGGDLVKPGGSLKLSCAASGFTFSSYAMSWVRQSPEKRLEWVAEISGSGSRDHYTDSVTGRFTVSRDNAKNTLYLEMSSLRSEDTAIYYCARQLTGTDYYGTDYWGQGTSVTVSS
VL: DVLMTQIPLSLPVSLGDQASISCRSSQSIVYSNGNTYLEWYLQRPGQSPKLLIYKVSNRFSGVPDRFSGSGSGTDFTLKISRVEAEDLGVYYCFQGSHLPYTFGGGTKLEIK
notes: also called recombinant anti-G200 antibody 4E6
Take B3: the binding result in experiment [1] is on record as “no binding (tested: 500 ng/ml)”; in experiment [2], “no binding (tested: 500 ng/ml)”; in experiment [4], “no binding (tested: 3000 ng/ml)”. For the same molecule, in experiment [3], the EC50 came to 0.0095 µg/mL.

B4: 28F2, recombinant IgG2c antibody (antibody, V domains shown)
VH: QIQLVQSGPDLKKPGETVKISCKASGYTFTNYAMHWMKQAPGKALKWMGWINTYTGEPTFADDFKGRFAFSLETSASTAYLQINSLKNEDMATYFCAREGYYDRSHYFDYWGQGTTLTVSS
VL: DVLMTQTPLSLPVSLGDQASISCRSSLSLVHGDGNTYLEWYLQKPGQSPKLLIYKVSNRFSGVPDRFSGSGSGTDFTLKISRVEAEDLGVYYCLQGSHIPFTFGSGTKLEIK
As for B4, the binding result in experiment [1] is reported as “no binding (tested: 500 ng/ml)”; in experiment [2] it was “no binding (tested: 500 ng/ml)”; in experiment [4], “no binding (tested: 3000 ng/ml)”. For the same molecule, the EC50 in experiment [3] was 0.0215 µg/mL. Also, the Kd in experiment [5] worked out at 9830 nM.

B5: 7B10, recombinant IgG2c antibody (antibody, V domains shown)
VH: AVQLVESGGGLVKPGRSLKLSCAASGFTFSSYAMSWVRQFPDKRLDWVAEISSGGGSTNYLDTVTGRFTISRDNAKNTLYLEMNSLRSEDTAMYYCARQLVGTDYYGTDYWGQGTSVTVSS
VL: DVLMTQTPLSLPVSLGDQASISCRSSQNIVYSNGNTYLEWYLQKPGQSPKLLIYKVSNRFSGVPDRFSGSGSGTDFTLKISRVEAEDLGVYYCFQGSHVPYTFGGGTKLEIK
notes: also called 7610
As to B5, the figures for the binding result in experiment [1], in experiment [2] and in experiment [4] were “no binding (tested: 500 ng/ml)”, “no binding (tested: 500 ng/ml)” and “no binding (tested: 3000 ng/ml)”, respectively. In addition, in experiment [3], the EC50 was 0.0107 µg/mL. Also, the Kd in experiment [5] came out at 330 nM.

B6: 17G4, recombinant IgG2c antibody (antibody, V domains shown)
VH: EVQLVESGGGLVKPGGSLKLSCSASGFTFSRYAMSWVRQSPEKRLEWVAEINSGGSYSFYSDTVTGRFTISRDNAKNTLFLEMSSLRSEDTAIYYCARQLTGTDYYGTDYWGQGTSVTVSS
VL: DVLMTQTPLSLPVSHGDQASISCRSSQSLLYSNGNTYLEWYLQKPGQSPKLLIYKVSNRFSGVPDRFSGSGSGTDFTLKISRVEAEDLGVYYCFQGSHVPYTFGGGTKLEIK
As to B6, the results for the binding result in experiment [1], in experiment [2] and in experiment [4] were “no binding (tested: 500 ng/ml)”, “no binding (tested: 500 ng/ml)” and “no binding (tested: 3000 ng/ml)”, respectively. In experiment [3], the 50% effective concentration (EC50) turned out to be 0.0079 µg/mL. Moreover, the Kd in experiment [5] amounted to 141 nM.
